Laboratory results as given in patent publication US20250177546A1 (SANYOU BIOPHARMACEUTICALS, published 2025).

How the values were obtained:
[1] = molecular target: T1, huROR1-His (human ROR1 ECD AA30-406 with C-terminal His tag, made in house) (human, UniProt Q01973 30-406); experiment: Gator (BLI) Advanced Kinetics; antibody 30 nM, huROR1-His 480-7.5 nM
T1 construct: range 30-406; Expressed in HEK293; also called antigen protein huROR1-His; not shown: C-terminal His tag
Description: First, Q buffer was prepared with PBS (10 mM pH7.4) (IgG-free, purchased from Jackson ImmunoResearch Lab)+0.02% Tween 20 (purchased from thermo)+0.2% BSA (purchased from source culture), and the stock solution of the test antibody was diluted with the prepared Q buffer to a working solution with a final concentration of 30 nM, the stock solution of the antigen protein huROR1-His was prepared with Q buffer into a working solution with multiple dilutions (480, 240, 120, 60, 30, 15, 7.5 nM), and detection and analysis was then performed with Gator instrument and its accompanying software, selecting the Advanced Kinetics experimental mode is used.

[2] = molecular target: T1, huROR1-His (human ROR1 ECD AA30-406 …); experiment: ELISA, huROR1-His coated at 2 µg/mL, goat anti-human Fc-HRP, OD450
Description: (§1) 96-well ELISA plate was coated with 2 μg/mL huROR1-His (30 μL/well) at 4° C. overnight. The next day, the plate was washed three times with PBST and then blocked with 5% skim milk for 2 h. […] After washing with PBST for three times, the secondary antibody Goat-anti-human Fc-HRP (abcam, ab97225) was added and incubated for 1 h. After incubation, the plate was washed with PBST for 6 times and TMB (SurModics, TMBS-1000-01) was added for color development. According to the color development results, 2 M HCl was added to terminate the reaction, and the data were read at OD450 using a microplate reader (Molecular Devices, SpecterMax 190).

[3] = molecular target: T1, huROR1-His (human ROR1 ECD AA30-406 …); experiment: Biacore T200 SPR; huROR1-His amine-coupled (~75 RU), antibody 4 and 20 nM as analyte, 1:1 Langmuir fit
Description: Protein coupling: The huROR1-His protein produced in Example 1.2 was diluted to 5.6 μg/mL with NaAc buffer, pH 5.0, the flow rate was set to 10 μL/min, the chip activation time was set to the default value of 420 s with a mixture of 1-ethyl-(3-dimethylaminopropyl)carbodiimide (EDC) and N-hydroxysuccinimide (NHS), and the antigen protein huROR1-His was fixed to a level of about 75 RU using a coupling mode with a preset coupling amount, and the activated groups that were not bound to the test sample were blocked with ethanolamine.
Sample test conditions: PBS buffer (pH 7.4) containing 0.05% Tween-20 was used as the running buffer, and the running buffer was used as the control test sample. A series of antibody concentrations (4 nM, 20 nM) were set. During sample analysis, the flow rate was set to 30 μL/min, the binding time was 120 s, and the dissociation time was 360 s. After the dissociation was completed, 10 mM Gly-HCl (pH 2.0) was used for regeneration for 20 s to completely remove the antibody bound to the ligand.
Parameter fitting: The experiment was run in multiple cycles, with the response signal taking the analysis time as the horizontal axis and the response value as the vertical axis. After double reference subtraction, the obtained data were fitted by BiAcore T200 analysis software. The fitting model adopted was 1:1 Langmuir binding model, and Affinity metrics such as the binding dissociation constant were determined.

[4] = molecular target: T1, huROR1-His (human ROR1 ECD AA30-406 …); experiment: ELISA, huROR1-His coated plate, goat anti-human Fc-HRP, OD450
[5] = molecular target: T1, huROR1-His (human ROR1 ECD AA30-406 …); experiment: as above; remark: listed apart in the source
[6] = molecular target: T2, human ROR1 on cells (full-length human ROR1 on huROR1-HEK293 cells; human ROR1 on A549 and HT-29 tumor cells) (human, UniProt Q01973 30-937); experiment: flow cytometry (FACS) on huROR1-HEK293 cells, anti-human IgG-Fc secondary antibody, MFI
T2 construct: whole, on cells; also called hROR1-HEK293T; A549 tumor cells
T2 sequence (Q01973 30-937): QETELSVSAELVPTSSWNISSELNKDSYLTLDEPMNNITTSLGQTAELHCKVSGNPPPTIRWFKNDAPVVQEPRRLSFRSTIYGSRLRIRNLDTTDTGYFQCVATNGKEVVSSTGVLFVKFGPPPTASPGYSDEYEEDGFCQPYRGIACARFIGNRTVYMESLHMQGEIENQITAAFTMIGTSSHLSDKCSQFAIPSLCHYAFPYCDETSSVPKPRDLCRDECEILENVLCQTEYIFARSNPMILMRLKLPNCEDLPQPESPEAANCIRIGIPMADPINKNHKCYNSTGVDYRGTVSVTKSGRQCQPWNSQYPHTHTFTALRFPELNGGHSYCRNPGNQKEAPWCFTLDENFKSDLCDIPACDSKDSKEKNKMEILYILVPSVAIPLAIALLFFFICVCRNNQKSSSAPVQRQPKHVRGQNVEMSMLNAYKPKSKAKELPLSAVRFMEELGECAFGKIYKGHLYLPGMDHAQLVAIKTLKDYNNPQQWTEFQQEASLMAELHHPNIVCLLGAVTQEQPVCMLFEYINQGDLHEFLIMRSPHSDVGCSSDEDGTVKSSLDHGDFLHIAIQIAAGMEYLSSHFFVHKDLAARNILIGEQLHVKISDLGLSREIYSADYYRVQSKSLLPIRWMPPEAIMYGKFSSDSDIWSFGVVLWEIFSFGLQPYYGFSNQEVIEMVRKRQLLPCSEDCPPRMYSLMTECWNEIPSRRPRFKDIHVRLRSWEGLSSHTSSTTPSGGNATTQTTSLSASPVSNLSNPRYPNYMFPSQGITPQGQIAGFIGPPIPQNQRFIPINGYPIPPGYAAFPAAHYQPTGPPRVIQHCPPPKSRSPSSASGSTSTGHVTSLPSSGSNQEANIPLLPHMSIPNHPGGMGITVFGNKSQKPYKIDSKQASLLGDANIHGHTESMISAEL
Description: (§2) In this example, the binding activity of the antibody was evaluated using two types of cells, huROR1-HEK293 cells over-expressing human ROR1 and A549 tumor cells.
(§3) The specific method was as follows: huROR1-HEK293 cells or A549 cells in the logarithmic growth phase were prepared to a single-cell suspension, the density was adjusted to 1×10⁶ cells/mL, then 100 μL/well cells were added to a 96-well round-bottom plate, centrifuged at 4° C., 300 g, and the supernatant was removed. […] After the incubation, the cell mixture was washed three times and then 100 μL of 1:300 diluted secondary antibody Goat F(ab′)₂ Anti-Human IgG-Fc (abcam, ab98596) was added. The mixture was incubated at 4° C. in the dark for 30 min. After washing three times, the cells were detected by flow cytometry (Beckman, CytoFLEX AOO-1-1102).

[7] = molecular target: T1, huROR1-His (human ROR1 ECD AA30-406 …); experiment: ELISA, huROR1-His coated plate, goat anti-human Fc-HRP, OD450; remark: listed apart in the source
[8] = molecular target: T2, human ROR1 on cells (full-length human …); experiment: flow cytometry (FACS) on A549 tumor cells, anti-human IgG-Fc secondary antibody, MFI
Description: as §2, §3

[9] = molecular target: T3, MusROR1-His (mouse ROR1 ECD AA30-406 with C-terminal His tag) (mouse, UniProt Q9Z139 30-406); experiment: ELISA, MusROR1-His coated at 2 µg/mL, goat anti-human Fc-HRP, OD450
T3 construct: range 30-406; Expressed in HEK293; also called mouse ROR1 antigen protein; not shown: C-terminal His tag
T3 sequence (Q9Z139 30-406 limits assumed): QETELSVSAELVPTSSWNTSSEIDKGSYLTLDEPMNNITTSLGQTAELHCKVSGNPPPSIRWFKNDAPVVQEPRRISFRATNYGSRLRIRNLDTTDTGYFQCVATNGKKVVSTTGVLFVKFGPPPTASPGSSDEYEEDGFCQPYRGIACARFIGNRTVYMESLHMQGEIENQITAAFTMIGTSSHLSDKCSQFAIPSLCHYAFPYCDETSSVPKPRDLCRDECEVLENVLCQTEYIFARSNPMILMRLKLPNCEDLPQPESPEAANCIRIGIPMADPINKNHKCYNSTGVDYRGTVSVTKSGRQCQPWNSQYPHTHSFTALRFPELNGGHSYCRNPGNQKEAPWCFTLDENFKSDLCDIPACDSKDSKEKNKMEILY
Description: as §1, with “MusROR1-His” for “huROR1-His”

[10] = molecular target: T4, huROR2-His (human ROR2 ECD AA34-403 with C-terminal His tag) (human, UniProt Q01974 34-403); experiment: ELISA, huROR2-His coated at 2 µg/mL, goat anti-human Fc-HRP, OD450
T4 construct: range 34-403; Expressed in HEK293; also called human ROR2 antigen protein; not shown: C-terminal His tag
T4 sequence (Q01974 34-403 limits assumed): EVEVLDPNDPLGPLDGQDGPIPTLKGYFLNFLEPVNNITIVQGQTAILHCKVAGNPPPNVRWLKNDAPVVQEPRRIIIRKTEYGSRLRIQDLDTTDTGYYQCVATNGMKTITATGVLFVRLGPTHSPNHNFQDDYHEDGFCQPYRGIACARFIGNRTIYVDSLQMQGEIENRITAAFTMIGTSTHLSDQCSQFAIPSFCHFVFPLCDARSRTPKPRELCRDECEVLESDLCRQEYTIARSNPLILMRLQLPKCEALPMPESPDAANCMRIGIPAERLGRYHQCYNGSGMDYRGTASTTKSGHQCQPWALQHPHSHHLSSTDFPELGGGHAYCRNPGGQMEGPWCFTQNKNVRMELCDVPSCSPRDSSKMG
Description: as §1, with “huROR2-His” for “huROR1-His”, “TMBS-1000-0)” for “TMBS-1000-01)”

T1 sequence (Q01973 30-406 limits assumed): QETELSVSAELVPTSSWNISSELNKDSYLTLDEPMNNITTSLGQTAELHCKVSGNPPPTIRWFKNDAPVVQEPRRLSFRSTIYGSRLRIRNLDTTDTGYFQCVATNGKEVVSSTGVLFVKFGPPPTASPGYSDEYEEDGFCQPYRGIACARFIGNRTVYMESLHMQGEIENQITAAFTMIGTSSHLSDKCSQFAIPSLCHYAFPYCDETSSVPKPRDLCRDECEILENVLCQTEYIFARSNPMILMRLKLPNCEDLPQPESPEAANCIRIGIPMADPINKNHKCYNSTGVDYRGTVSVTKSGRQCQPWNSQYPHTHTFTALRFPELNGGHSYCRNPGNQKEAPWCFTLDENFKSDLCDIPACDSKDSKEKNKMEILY

Kd [1]: 5.67 nM | koff [1]: 0.00217 s⁻¹ | kon [1]: 383000 M⁻¹ s⁻¹ | EC50 [2]: 5.49 ng/mL | Kd [3]: 1.25 nM | koff [3]: 0.000817 s⁻¹ | kon [3]: 653000 M⁻¹ s⁻¹ | t 1/2 [3]: 14.1 min | EC50 [4]: 1.92 ng/mL | EC50 [5]: 2.12 ng/mL | EC50 (read off the curve) [6]: ~80 ng/mL | EC50 [7]: 1.63 ng/mL | EC50 (read off the curve) [8]: ~5 ng/mL | binding result [9]: no binding (tested: 1 µg/mL) | binding result [10]: no binding (tested: 1 µg/mL)
B1: B31 (chimeric antibody) (antibody, human IgG1, kappa, V domains shown)
VH: EVMLVESGGGLVKPGGSLKLSCAASGFTFSRYAMSWVRQTPEKRLEWVASISRGGSTYYPDSVKGRFTISRDNARNILYLQMSSLRSEDTAMYYCASYFGNYDAMDYWGQGTSVTVSS
VL: DIQMNQSPSSMYASLGERVTITCKASQDINNYVSWFQQKPGKSPKTLIYRANRLVDGVPSRFSGSGSGQDYSFTISSLEYEDMGIYYCLQFDEFPYTFGGGTKLEIKR
notes: ExpiCHO expression
